Data as given in patent US20260015426A1 (23ANDME, published 2026).
Where a chain is given by its changes, count along the chain named. Numbers in names are those of the source.

T1: hu-M-IL1RAP construct, positions S21-T367 (extracellular domain of the membrane form of human IL1RAP) (human, UniProt Q9NPH3 21-367)
T1 construct: Biotinylated when captured on the Biacore chip
T1 sequence: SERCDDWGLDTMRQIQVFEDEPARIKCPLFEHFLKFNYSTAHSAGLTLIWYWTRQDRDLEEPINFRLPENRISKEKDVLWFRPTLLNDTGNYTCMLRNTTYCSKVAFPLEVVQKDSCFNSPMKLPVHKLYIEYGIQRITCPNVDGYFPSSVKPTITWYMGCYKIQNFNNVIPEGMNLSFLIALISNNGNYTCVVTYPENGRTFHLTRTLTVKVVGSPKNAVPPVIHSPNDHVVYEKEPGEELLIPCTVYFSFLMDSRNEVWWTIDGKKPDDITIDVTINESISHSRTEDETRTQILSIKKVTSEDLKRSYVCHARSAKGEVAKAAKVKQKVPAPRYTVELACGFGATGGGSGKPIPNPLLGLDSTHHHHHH

B1: H2 Fab (VH R96D) (Fab, V domains shown)
VH: EVQLVESGGGLVQPGGSLRLSCAASGFTFSNYAMSWVRQAPGKGLEWVATVTEGGDYNYYLDDVKGRFTISRDNAKNSLYLQMNSLRAEDTAVYYCARDDWPYFFDYWGQGTLVTVSS
VL: DIQMTQSPSSLSASVGDRVTITCRASENIYSNLAWYQQKPGKSPKLLVYGAKNLADGVPSRFSGSGSGTDYTLTISSLQPEDFATYYCQHFWTTPRTFGGGTKVEIK
notes: Fab with 8xHis tag
B2: H3 Fab (VH V51S) (Fab, V domains shown)
VH: B1 VH with V51S, D100R
VL: B1 VL
notes: Fab with 8xHis tag
B3: H4 Fab (VH F29Q) (Fab, V domains shown)
VH: B1 VH with F29Q, D100R
VL: B1 VL
notes: Fab with 8xHis tag
B4: H6 Fab (VH R96Q) (Fab, V domains shown)
VH: B1 VH with D100Q
VL: B1 VL
notes: Fab with 8xHis tag

Experiments:
[1] = molecular target: T1, hu-M-IL1RAP construct, positions …; experiment: SPR, Fab against parent Fab
[2] = molecular target: T1, hu-M-IL1RAP construct, positions …; experiment: phage display selection of affinity maturation libraries + NGS; enrichment of the mutation R96D (VH)
Protocol: (§1) For the first panning round, plates and phage libraries were blocked in PBS buffer containing 0.05% TWEEN® 20 and 1% BSA for either 1 hour (plates) or 30 minutes (phage libraries). Plates were washed in Wash Buffer (PBS buffer containing 0.05% TWEEN® 20) and incubated with blocked phage libraries for 2 hours with shaking. Non-specifically bound phage was removed by washing vigorously with Wash Buffer. […] Non-specific interactions were inhibited by adding 1/10th v/v 1% BSA.
(§2) For panning rounds three through five, phage libraries were incubated with blocking buffer (PBS buffer with 1% BSA in round 3 and SUPERBLOCK™ PBS buffer (Pierce) and 0.05% TWEEN® 20 in rounds 4 and 5) for 30 minutes and then incubated with decreasing concentrations of biotinylated hu-M-IL1RAP for 1 hour. Hu-M-IL1RAP-bound phage were captured on blocked neutravidin-coated plates, washed extensively with Wash Buffer, and eluted and neutralized in the same manner as in rounds 1 and 2. In the final selection round, 1000× non-biotinylated hu-M-IL1RAP was added as a competitor to increase the selection stringency.
(§3) To extract sequences from affinity maturation libraries using NGS, phagemid double stranded DNA was isolated from E. coli XL-1 cells carrying phagemids from the initial phage library (unsorted libraries) and from the second and third rounds of solution selection (sorted libraries). […]

[3] = molecular target: T1, hu-M-IL1RAP construct, positions …; experiment: SPR, Fab analyte, 37 C
Protocol: (§4) Surface plasmon resonance (SPR) analysis was used to determine binding affinity for hu-M-IL1RAP of the purified Fabs containing the selected single, double, and triple mutations in either the VL or VH regions using a BIACORE™ 8K instrument. […] For kinetics measurements, 5 nM biotinylated hu-M-IL1RAP was captured at 10 μL/min to achieve ˜50 response units in the second flow cell (FC2). FC1 was kept as a reference. […] The sensorgrams were recorded and subjected to reference and buffer subtraction before data analysis with the BIACORE® 8K Evaluation Software (version 1.1.1.7442). Association rates (kₒₙ) and dissociation rates (koff) were calculated using a simple one-to-one Langmuir binding model. The equilibrium dissociation constant (KD) was calculated as the ratio of koff/kₒₙ.

[4] = molecular target: T1, hu-M-IL1RAP construct, positions …; experiment: SPR, Fab analyte, 25 C
Protocol: as §4

[5] = molecular target: T1, hu-M-IL1RAP construct, positions …; experiment: phage display selection of affinity maturation libraries + NGS; enrichment of the mutation V51S (VH)
Protocol: as §1, §2, §3

[6] = molecular target: T1, hu-M-IL1RAP construct, positions …; experiment: phage display selection of affinity maturation libraries + NGS; enrichment of the mutation F29Q (VH)
Protocol: as §1, §2, §3

[7] = molecular target: T1, hu-M-IL1RAP construct, positions …; experiment: phage display selection of affinity maturation libraries + NGS; enrichment of the mutation R96Q (VH)
Protocol: as §1, §2, §3

Binder | Fold Improvement in KD @ 25° C. [1] | Fold Improvement in KD @ 37° C. [1] | Enrichment ratio (at the highest selection stringency) [2] | Kd [3] | koff [3] | kon [3] | Kd [4] | koff [4] | kon [4] | Enrichment ratio (at the highest selection stringency) [5] | Enrichment ratio (at the highest selection stringency) [6] | Enrichment ratio (at the highest selection stringency) [7]
B1 | 7.99 fold | 2.39 fold | 4.06 ratio | 112 pM | 0.000729 s⁻¹ | 6.5e+06 M⁻¹ s⁻¹ | 42.2 pM | 0.000219 s⁻¹ | 5.19e+06 M⁻¹ s⁻¹ |  |  | 
B2 | 8.51 fold | 2.14 fold |  | 125 pM | 0.000602 s⁻¹ | 4.82e+06 M⁻¹ s⁻¹ | 39.6 pM | 0.000208 s⁻¹ | 5.26e+06 M⁻¹ s⁻¹ | 3.42 ratio |  | 
B3 | 8 fold |  |  |  |  |  | 42.1 pM | 0.000231 s⁻¹ | 5.49e+06 M⁻¹ s⁻¹ |  | 3.02 ratio | 
B4 | 7.2 fold | 1.43 fold |  | 188 pM | 0.000708 s⁻¹ | 3.76e+06 M⁻¹ s⁻¹ | 46.8 pM | 0.00025 s⁻¹ | 5.34e+06 M⁻¹ s⁻¹ |  |  | 3.8 ratio
